These results are taken from the nanobody polyreactivity screen of Harvey et al. (2022).

This series is described as follows: yeast display, Sf9 membrane polyspecificity reagent, FACS + sequencing; frameworks hold sequencing errors. The procedure, abridged:
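Galactose-induced (36–48 hours) yeast carrying a synthetic nanobody display library were exposed to 10% biotinylated, detergent-solubilized Sf9 membrane reagent at 4 °C for 1 hour. FACS followed streptavidin microbead enrichment, using low and high (top ~1%) gates for expression (anti-HA) and reagent binding (streptavidin). Colony PCR, MiSeq 2 × 250 sequencing and CDR-length filtering followed. Labels for polyreactivity reflect the gate of origin.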
Take “QVQLVESGGGLVQAGGSLRLSCAASGSTFWLNAMGWYRQAPGKERELVADISRSGGSTYYADSVKGRFTISRDNAKNTVYLQMNSLKPEDTAVYYCAADSWPDQFTVYPGGDYWGQGTQVTVSS”: the “polyreactivity (PSR sort gate)” value is on record as “low polyreactivity”.

For “QVQLVESGGGLVQAGGSLRLSCAASGSTFWLYAMGRYRPAPGKERELVASISSRGGSTYYADSVKGRFTISRDNAKNTVYLQMNSLKPEDTAVYYCAAKDIRYDDDYWGQGTQVTVSS”, the “polyreactivity (PSR sort gate)” value is “low polyreactivity”.

“QVQLVESGGGLVQAGGSLRLSCAASGSTFWLYAMGWYRQAPGKERELVAAIRSGDRTNYADSEKGRFTISRDNAKNTVYLQMNSLKPEDTAVYYCAAVAYLNWTPHYYWGQRTQVTVSS”: the “polyreactivity (PSR sort gate)” value is “low polyreactivity”.

Consider “QVQLVESGGGLVQAGGSLRLSCAASGSTFWPNAMGWYRQAPGKERELVAAISWSSSSGGRTYYADSVKGRFTISRDNAKNTVYLQMNSLKPEDTAVYYCNASYRDEDDYWGQGTQVTVSS”, for which the “polyreactivity (PSR sort gate)” value is recorded as “high polyreactivity”.

Take “QVQLVESGGGLVQAGGSLRLSCAASGSTFWRYAMGWYRQAPGKERELVAAITRRGSSTYYADSVKGRFTISRDNAKNTVVLQMNSLKPEDTAVYYCAAPGYVRTGVTYGGYYWGQGTQVTVSS”: the “polyreactivity (PSR sort gate)” value is listed as “high polyreactivity”.

Regarding “QVQLVESGGGLVQAGGSLRLSCAASGSTFWSYAMGWYRQAPGKEREFVAAISSSDDSTYYADSVKGRFTISRDNAKNTVYLQMNSMKPEDTAVYYCATSWYIYPYDYWGQGTQVTVSS”, the “polyreactivity (PSR sort gate)” value is “low polyreactivity”.

For “QVQLVESGGGLVQAGGSLRLSCAASGSTFWSYAMGWYRQAPGKERELVAAISYRGTRTRYADSVKGRFTISRDNAKNTVYLQMNSLKPEDTAVYYCAADRTFYGIRFDYWGQGTQVTVSS”, the “polyreactivity (PSR sort gate)” value was “high polyreactivity”.

Turning to “QVQLVESGGGLVQAGGSLRLSCAASGSTFWSYAMGWYRQAPGKERELVAVITGSDGRTFYADSVKGRFTISRDNAKNTVYFQINSLKPEDTAVYYCAADAVFRATRDDRSTSEDDYWGQGTQVTVSS”, the “polyreactivity (PSR sort gate)” value is “low polyreactivity”.

On to “QVQLVESGGGLVQAGGSLRLSCAASGSTFWVYGMGWYRQAPGKERELVADITSIGGSTYYADSVKGRFTISRDNAKNTVYLQMNSLKPEDTAVYYCAARETWYPYYWMGYWGQGTQVTVSS”, for which the “polyreactivity (PSR sort gate)” value is “high polyreactivity”.

Turning to “QVQLVESGGGLVQAGGSLRLSCAASGSTFWWKTMGWYRLAPGKERELVADIRTSGGGTYYADSVKGRFTISRDNAKNNVYLQMYSLKPEDTAVYYCNADPKWEMGSWGQGTQVTVSS”, the “polyreactivity (PSR sort gate)” value is recorded as “low polyreactivity”.

With “QVQLVESGGGLVQAGGSLRLSCAASGSTFWWYAMGWYRQAPGKERELVAAISYSGSSTYYADSVKGRFTISRDNAKNTVYLQMNSLKPEDTAVYYCAADIQYYYNFYPGDYWGQGTQVTVSS”, the “polyreactivity (PSR sort gate)” value is “low polyreactivity”.

For the sequence “QVQLVESGGGLVQAGGSLRLSCAASGSTFWYNAMGWYRQAPGKERELVAAISASGGSTYYADSVKGRFTISRDNAKNTVYLQMNSLKPEDTAVYYCAAGSFWGYSRYRTYYGFDYWGQGTQVTVSS”, the “polyreactivity (PSR sort gate)” value is on record as “high polyreactivity”.

On to “QVQLVESGGGLVQAGGSLRLSCAASGSTFWYYAMGWYRQAPGKEREFVAAINRSGASTYYADSVKGRFTISRDNAKNTVYLEMNSLKPEDTAVYYCAAAVYLQYLDDPTYGYWGQGTQVTVSS”, for which the “polyreactivity (PSR sort gate)” value is reported as “high polyreactivity”.

In the case of “QVQLVESGGGLVQAGGSLRLSCAASGSTFWYYAMGWYRQAPGKERELVASITYSGGSTYYADSVKGRFTISRDNAKNTVSLQMNSLKPEDTAVYYCAAEGYYSNYHYWGQGTQVTVSS”, the “polyreactivity (PSR sort gate)” value is on record as “low polyreactivity”.

“QVQLVESGGGLVQAGGSLRLSCAASGSTFWYYTMGWSRQAPGKERELVAGITSGGSTYYADSVKGRFTISRDNAKNTVYLQMNSLKPEDTAVYYCAKRYYGRGYYYWGQGTQVTVSS”: the “polyreactivity (PSR sort gate)” value is listed as “high polyreactivity”.

Take “QVQLVESGGGLVQAGGSLRLSCAASGSTFYAKAMGWYRQAPGKERELVATINRRGNTYYADSVKGRFTISRDNAKNTVYLQMNSLKPEDTAVYYCAADYRRYGSYDYWGQGTQVTVSS”: the “polyreactivity (PSR sort gate)” value was “low polyreactivity”.

As to “QVQLVESGGGLVQAGGSLRLSCAASGSTFYANAMGWYRQAPGKDRELVAAITRSGAGTYYADSVKGRFTISRDNAKNTGYLQMNSLKPEDTAVYYCAKRTKTPTGYVWGGYDYWGQGTQVTGSS”, the “polyreactivity (PSR sort gate)” value was “high polyreactivity”.

Take “QVQLVESGGGLVQAGGSLRLSCAASGSTFYANAMGWYRQAPGKERELVAVIRWSGGSTYYADSVKGRFTISRDNAKNTVYLQMNSLKPEDTAVYYCNADFYRVAYLRRYSHFDYWGQGTQVTVSS”: the “polyreactivity (PSR sort gate)” value is given as “high polyreactivity”.

In the case of “QVQLVESGGGLVQAGGSLRLSCAASGSTFYAYAMGWYRQAPGKERELVAAISSDGTNYADSVKGRFTISRDNAKNTVYLQMNSLKPEDTAVFYCAADLLLYSSQDNDYWGQGTQVTVSS”, the “polyreactivity (PSR sort gate)” value was “low polyreactivity”.

For “QVQLVESGGGLVQAGGSLRLSCAASGSTFYAYAMGWYRQAPGKERELVAVITSSGSTYYADSVKGRFTISRDNAKNTVYLQMNSLKPEDTAVYYCARVSYRGYGYWGQGTQVTVSS”, the “polyreactivity (PSR sort gate)” value was “high polyreactivity”.

Regarding “QVQLVESGGGLVQAGGSLRLSCAASGSTFYAYAMGWYRQAPGKEWELVAAITYSGGTPYYADSVKGRFTISRDNAKNTVYLQMNSLKPEDTAVYYCAARYRGLTGHIDGYWGQGTQVTVSS”, the “polyreactivity (PSR sort gate)” value is “low polyreactivity”.

With “QVQLVESGGGLVQAGGSLRLSCAASGSTFYAYAMGWYRQAPGTERELVAAITTIGGRTYYADSVKGRFTISRDNAKNTVYLQMNSLKPEDTAVYYCAADIRSNRLYDGGYWGQGTQVTVSS”, the “polyreactivity (PSR sort gate)” value is on record as “low polyreactivity”.

Take “QVQLVESGGGLVQAGGSLRLSCAASGSTFYAYTMGWYRQAPGKERELVARISGRGGSTYYADSVKGRFTISRDIAKNTVYLQMNSLKPEDTAVYYCAARVYGTYRGIQYGYWGQGTQVTVSS”: the “polyreactivity (PSR sort gate)” value was “high polyreactivity”.

Regarding “QVQLVESGGGLVQAGGSLRLSCAASGSTFYDNAKGWYRQAPGKERELVAGITESGGSTYYADSVKGRFTISRDNAKNTVYLQMNSLKPEDTAVYYCAAVYTYIPYLTYYYWGQGTQVTVSS”, the “polyreactivity (PSR sort gate)” value is reported as “low polyreactivity”.

“QVQLVESGGGLVQAGGSLRLSCAASGSTFYDNAMGWYRQAPGKERELVASIRSGGSTKYADSVKGRFTISRDNAKNTVYLQMNSLKPEDTAVYYCAADVHFVKDPPVKSIYGKFYYWGQGTQVTVSS”: the “polyreactivity (PSR sort gate)” value is on record as “low polyreactivity”.

Consider “QVQLVESGGGLVQAGGSLRLSCAASGSTFYENTMGWYRQAPGKERELVAAISFRGGSTYYADSVKGRFTISRDNAKNTVYLQMNSLKPEETAVYYCAKEYYTVRLYDYWGQGTQVTVSS”, for which the “polyreactivity (PSR sort gate)” value is on record as “low polyreactivity”.

In the case of “QVQLVESGGGLVQAGGSLRLSCAASGSTFYEYAMGWYRQAPGKERELVAAISSGGSTYYADSVTGRFTISRDNAKNTVYLLMNSLKPEDTAVYYCNADCQTYCGEYDYWGQGTQVTVSS”, the “polyreactivity (PSR sort gate)” value is reported as “low polyreactivity”.

Take “QVQLVESGGGLVQAGGSLRLSCAASGSTFYFNAMGWYRQAPGKERELVATIRSGDSTYYADSVKGRFTISSDNAKNTVYLQMNSLKPVDTAVYSCPGPLPYYGQYDYWGQGTQVTVSS”: the “polyreactivity (PSR sort gate)” value was “low polyreactivity”.

Turning to “QVQLVESGGGLVQAGGSLRLSCAASGSTFYFYAMGWYREAPGKERELVAAISKRGTSTYYADSVKGRFTISRDNAKNTVYLEMNSLKPEDTAVYFCAADAPRGYNYWGQGTQVTVSS”, the “polyreactivity (PSR sort gate)” value was “high polyreactivity”.

For the sequence “QVQLVESGGGLVQAGGSLRLSCAASGSTFYFYAMGWYRQAPGKERELVAVISSGGRTYYADSVKGRFTISRDNAKNTVYLQMNSLKPEDTAVYYCAASWPSSLTYYYWGQGTQVTVSS”, the “polyreactivity (PSR sort gate)” value is given as “low polyreactivity”.

“QVQLVESGGGLVQAGGSLRLSCAASGSTFYGNAMGWYRQAPGKERELVAAITWGDASTYYADSVKGRFTISRDNAKNTVYLQMNSLKPEDTAVYYCAVDESYGSSSDMDYWGQGTQVTVSS”: the “polyreactivity (PSR sort gate)” value is recorded as “low polyreactivity”.

Turning to “QVQLVESGGGLVQAGGSLRLSCAASGSTFYGNMGWYRQAPGKERELVAAITYRGTNTYYADSVKGRFTISRDNAKNTVYLQMNSLKPEDTAVYYCAAEYDVYQGRGRYYGYDYWGQGTQVTVSS”, the “polyreactivity (PSR sort gate)” value is “high polyreactivity”.

For the sequence “QVQLVESGGGLVQAGGSLRLSCAASGSTFYGYAMGWYRQAPGKERELVAAISSGASTYYADSVKGRFTISRDNAKNSVYLQMNSLKPEDTAVYYCAAYSYPKKYGYWGQGTQVTVSL”, the “polyreactivity (PSR sort gate)” value is given as “high polyreactivity”.

Regarding “QVQLVESGGGLVQAGGSLRLSCAASGSTFYGYAMGWYRQAPGKERELVAAISSSATRTYYADSVKGRFTISRDNAKNTVYLQMNSLKPEDTAVYYCAAVSTLLYYHYYTRDYWGQGTQVTVSS”, the “polyreactivity (PSR sort gate)” value is reported as “high polyreactivity”.

Consider “QVQLVESGGGLVQAGGSLRLSCAASGSTFYGYAMGWYRQAPGKERELVAAITRSGGSTYYADSVKGRFTISRDNAKNTVYLQMNSLIPEDTEVYYCNKDGYKGGVGYDYWGQGTQVTVSS”, for which the “polyreactivity (PSR sort gate)” value was “high polyreactivity”.

Take “QVQLVESGGGLVQAGGSLRLSCAASGSTFYGYAMGWYRQAPGKERELVAVISRSGGGTSYADSVKGRFTISRDNAKNTVYLQMNSLKPEDTAVYYCNAAKYLYRHGFMSAGDMYYWGQGTQVTVSS”: the “polyreactivity (PSR sort gate)” value is given as “high polyreactivity”.

As for “QVQLVESGGGLVQAGGSLRLSCAASGSTFYGYAMGWYRQAPGKERELVAVISRSGGSTYYADSVKGRFTISRDNAKNTVYLQMNILKPEDTAVYYCNARWSFSYTVWVDSYWGLDDYWGQGTQVTVSS”, the “polyreactivity (PSR sort gate)” value was “high polyreactivity”.

“QVQLVESGGGLVQAGGSLRLSCAASGSTFYGYGMGWYRQAPGKERELVAAITGYGDTTYYADSVKGRFTISRDYAKNTVDLQMNSLKPEDTAVYYCNARWHAEYDYWGQGTQVTVSS”: the “polyreactivity (PSR sort gate)” value is recorded as “low polyreactivity”.

With “QVQLVESGGGLVQAGGSLRLSCAASGSTFYGYTMGWYRQAPGKERELVAVITSGGSTYYADSVKGRFTISRDNAKNTVYLQMNSLKPEDTAVYYCAKRYGYPAYGRPCRIGRTYDYWGQGTQVTVSS”, the “polyreactivity (PSR sort gate)” value was “low polyreactivity”.

Consider “QVQLVESGGGLVQAGGSLRLSCAASGSTFYHYTMGWYRQAPGKERELVAAITYSGGRTYYADSVKGRFTISRDNAKNTVYLQKNSLKPEDTAVYYCAATYSTPGAGYYHYWGQGTQVTVSS”, for which the “polyreactivity (PSR sort gate)” value was “high polyreactivity”.
